{"source": "patent US20090220470A1", "about": "(CENTRO DE INVESTIGACION COOPERATIVA EN BIOCIENCIAS CIC …, published 2009)", "binders": {"B1": {"name": "Ubiquilin1 UBA (single UBA domain, GST-fused) (other)", "chain": "VNPQLQNPEVRFQQQLEQLSAMGFLNREANLQALIATGGDINAAIERLLGSQPS", "modifications": "not fully specified (C-terminus); also: GST-fused, PreScission protease site and His6 tag, construct limits not given here", "notes": "not shown: glutathione-S-transferase (GST) encoded by the pGEX-6P1 vector (Amersham); PreScission protease site and His6 tag with vector linker residues"}}, "key": {"[1]": {"biological_target": "T1, Mono-ubiquitin (Sigma Aldrich) (UniProt P0CG48 1-76)", "experiment": "SPR (BiaCore 3000), captured via GST on anti-GST chip, mono-ubiquitin injected, steady state", "source_text": "(§1) (FIG. 4C) Mono-ubiquitin interaction with single and tandem UBA domains from hHR23A and ubiquilin1 was monitored by real-time surface plasmon resonance (SPR).\nAll injections were done as randomized duplicates, and each experiment was repeated in triplicate. All the experimental profiles were double referenced using the Scrubber 2.0 software (BioLogic Software), i.e. both the signals from a His6-GST-SV5 reference surface and from blank experiments (running buffer instead of protein) were subtracted. The steady-state responses (Req) were estimated by averaging the signal monitored during the last 15 seconds of each injection. The Req values were plotted against the concentration (C) of mono or tetra-ubiquitin and fitted using the following equation:"}, "[2]": {"biological_target": "T1, Mono-ubiquitin (Sigma Aldrich)", "experiment": "SPR (Biacore), GST fusion captured on anti-GST antibody chip (150-220 RU), mono-ubiquitin injected in a 2-fold dilution series, steady-state fit", "procedure": "as §1\nTo measure real-time interactions, all experiments were performed with a BiaCore 3000 instrument, at 25° C., using HBS EP (0.01 B M HEPES pH 7.4, 0.15 M NaCl, 3 mM EDTA, 0.005% surfactant P20) (BiaCore) as running buffer. Anti GST antibody (BiaCore) was covalently immobilized on a CM5 chip (carboxy methylated dextran) from BiaCore with a density of approximately 9000 resonance units (RU≈pg·mm-2), using standard amino-coupling techniques and reagents (NHS, EDC, ethanolamine) from BiaCore. Purified GST-tagged polypeptide comprising ubiquitin binding domains of p62 protein and GST were diluted in running buffer and captured to similar levels in different flow cells. Single and tandem GST-fused UBA domains were captured on the sensor chip at low (30-55 RU) and high (130-220 RU) densities.\nAll injections were done as randomized duplicates, and each experiment was repeated in triplicate. […] The steady-state responses (Req) were estimated by averaging the signal monitored during the last 15 seconds of each injection."}}, "note": "Where no end group is shown, it is not given here."}
{"binder": "B1", "values": [{"measurement": "binding stoichiometry (molar ratio ubiquitin:UBA)", "setting": "[1]", "result": 1, "unit": "ubiquitin per UBA"}, {"measurement": "Kd", "setting": "[2]", "result": 41.3, "unit": "µM"}]}
